Data published in the NTF2 design screens of Basanta et al. (2020).

test: protease stability score; higher = more stable; yeast display proteolysis, trypsin and chymotrypsin;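 further: relative to predicted unfolded state with 0 unfolded-like and 1 meaning tenfold more protease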

First: NKMMEEIHHWLRLLIENEITGDEEKSLHLADPEARIDFDGVEIHGWERFLKFVEEKLKLLGARVEDIKIHDYRIIDGRLHIDSRVHIEINGVRQTREREIVSRKVNGRWLVNSLHFR
Second: SEEHERIKRASEEIWRMSETGDFETFFNNFDPNARSDVDGVFNHGREELHRVLLEFWHKLGLTRIDAKVHDDHSFENHLKVDLEERFDGRTVEVRIISRKYDGRWFYTDLIIIRR
The protease stability score of the first is higher: 0.607 for the first, 0.169 for the second.

Compared with “DEDTKASELAIEILIKILLTGDEDSLNHLFDPNVRLEVGDKQMHGMESMVKFQRHWRVNHTIVKRMEIINIGDKMHIHLVGHINGDFNGKTSEHESHVHILNEKVNGRWLIRSMEIEIR”, “SEEEEWAEIASKLEIEIYLTGDFERFRKFADPHVRYEIHIDGREFKIHGMELYSEWLLRFKGVRLFIKDERISVIGDKLYIHINGDLEFNGRRQDVHFEFLTLKVDGRWIVKKIRNESR” is lower in protease stability score: 1.62 for the first, 1.59 for the second.

First: SEVAEVAREIVEIITKREYTGDEKTLDRMMDPNVRVEIGDWEIIGRDIYQKFVIELRVKDMHVRFKDVRVQGDFAFQDTELRMHGIIDGKDRETSHDTHWVFYKVDGRWLVHSIHIK
Second: SEEEEKFHRFYKLLLEMILTGNWKEVWDLMDPNARLDVIIGDKSIHNHGWKVILEFMREIRIRHVHIKHMEVYNGRIHLDEHRDIHFNGRDIRSDVIIHAVVIDGRFHHERIEFL
The protease stability score of the first is higher: 1.3 for the first, 0.751 for the second.

Going from “EEEKEIAEELIRRIRESLRTGDEDLKHKLADPNVRHIFNGRNNHGREEMLRTLEELIKQFGVENIDIELHDWDHVDGRLHIHVRVRYGDYMMHLRIEAEKVNGRWQSETVELR” to “SEEEKIMEELLRRIVNALQTGDEDFWSHLADPDTRFVLIQGEWSDEVHGRENALKFMEELKKRVPGMRIRVKDSRVQGEKLHVDGEIIYNGRSFDVEIRLRVVDGRIHEFQIIIR”, the protease stability score rises from 1.23 to 2.06.

First: SEEEEIVRHANHLFTHAMNTGDWRLLKELFDPHTKILIDGQEHHGWSIIYRELRHIRIDHVEMRIRSVHTQGNKAHVDGEIIVEGTVNGVTHKTSNRVNLIIRKVDGRWIVESIDIH
Second: DEDDKRSEKYLQKLLTDTHTGDETAYRDLADPHVRIEFNGREWHGWKRAHEVFHRILEEMRLKDLRIEDVRKQGEKVRLHIRLHSTVDGKQVDLELEIILLKVNGQWYIKDVTLI
The protease stability score of the first is higher: 1.55 for the first, 0.886 for the second.

Going from “SEDERDMEKASEDMLRNWMTGDFKSLHTLLDPHYRIDIDGQWHHGRDLWVEALRELLHQLGVERVEARERDFKIQGNKLESHIELRYNGRTIETDDLFIKIDGRWFIHSIHLRIR” to “DEDEEAVRHVVEEWFKFLLTGDEESFEKMFDPSARLIIGDKHYHGRDLLSHVLRELRFKEHRIHDMEIRVVNGKAEVIIHGHEVGIWNGVESESHSEIIIIIDKYDGRWHFHSVEIIFR”, the protease stability score rises from 0.94 to 2.

Going from “DEDFENASRTLKKFYEDEATGDEDALSELVDPNTRLDINGQQVHGWENFRKWIHHLGIKHVILHIRRYDSQGDKLHLETEEVHDFNGVEERRDTRLLLLKVDGKWIFKEIEVK” to “DEEERVRDEIERLIEESLRTGDWRHLSELFDPNVRMEVGDKDIIGRERVHQAIHDFWKSFGADHRHLHDIEEINGVVIMHMRYRVGNKTVHFHVIMIKINGRWFLHSVHIHID”, the protease stability score falls from 1.41 to 1.11.

Compared with “SEVHEQIEEIFREFMHMLLTGDWKRLTELADPHVRLEFDGREFHGREELVRRLLELGFKHQHLHDMRIHNFDGRVYMHTDTRVHVDGKHVIVRLELIVNKFNGQWYVHSLRIEVQ”, “DESEKLVERLTEDFRKAFETGDEKRLYNLMDPNVRLDINGVEIIGRELISKDLAHDLRRFKNVKMEFRLREIRVIGNFAHIDGRDIINVDGVEKYHESNYIVHKIDGRWHIKEIIIH” is higher in protease stability score: 0.343 for the first, 1.52 for the second.

First: DEEEHTAHVAHKLWEDSLHTGNEDNHRKLLDPHARIIVNGRLLHGWEDVEKILKDLGIKVMHMELERIKVVGDKLRIVGHLETRFDGRTIRLREELVVRKFNGRWHIEEINIL
Second: DDLEKIVLRMLNLWLKSILTGDEEFEEHYADPNVRYEINGVELHGRERFSQWLTDLRRKFKNIRIEIRVHHTEAQGDKMRSEEELIIDFEGRQINREVRIDMKVIDGRIKEVKVHII
The protease stability score of the first is lower: 1.24 for the first, 1.42 for the second.

Going from “DHVEHEVENVLRKTLHSFLTGDFELLHRLADPHVRSDINGVEIHGWEKLSKWILTLIEQVDHSEFDLKDIRLQGDFVRIHGELILRFNGKHIEIRVQSHVEKIDGRWVIHAVKLK” to “DEDERLAEEAVKLLIEINRTGDEDLFERNIDPNAQSDINGRRLHGMEQISEFLLRIKNIKLQPRHVDVQGDKMRVEGHLHINGQTHEVRWFVTKINGVWLITEIRVH”, the protease stability score rises from 1.11 to 1.12.

Going from “SEDEEEWHEATHLLVESLKTGDWKDLSRLADPNAKLHVGEKTVIGRELVSKHLKNRMTELGINHIHIEDRESQGDKIFIISHIHVNGREMKSIFIILKIDGRWILHSMEIREH” to “DEEEKILEEFLEIWIEAVATGDEEVLEHLMDPNTRVHILVGDKTLDVHGMEFFKRHIKILGADHIEWRIRHKEVINGRIHTRGELILRQGDKERRIDVEIILVVVNGRLKNSEVRER”, the protease stability score rises from 0.327 to 1.43.

Compared with “DEHQRMLELFMRLLMHSQETGDEKTLRELADPNARIHVGDKDYVGREHAAKLLVEWRIHDLELRTVDVQGDKIQWEGELEGEYNGKQDRYETYIIVTKIDGRWLEERVIFK”, “SEDHHLMEHAIEIMLEMIRTGDEQKYLNLVDPHARLEIDGREHHGWKRMREVFRWLGVDHSDVRHVNVQGEKVEVDTIIEVGDKRIEVIVIVRKINGRWVIEEVRVH” is lower in protease stability score: 1.3 for the first, 0.549 for the second.

Going from “SEDEEIVHLAIEMYLESIRTGDWKLWEKLIDPDVRLEVNGVEFHGMEEFLKFEREINKRVDHVEVRLRDTRLVNGQVNLNTELINRYDGRTIITETTYVAIKVDGKWYIHEYRIE” to “DEEEEESHEATEMILYAHKTGDFDLWEKLADPHVRLDVNGVHVHGREEYVRIMRHIHKNWGVQRFHVEFHDLELQGEKVRVRLRSNFNGRHHTETIIIEKINGRWYLKTRRIT”, the protease stability score rises from 1.14 to 1.42.

First: DETEKIVRSVVHMFLHLMHTGDWEELMKLADPNTIVHFENHRKHGREDAIRHIIEFILRADHIEVHLDEIRIQGDKVYLNLRLILDINGRRIETRVHIILVKINGRWRIHSMDVE
Second: TEEDELRELAIRLLEESLRTGNEQDLRELFDPNTRIVIGNKDFHGMEHWVRWVFEWRKEHGIKMRIEVKRVDVQGDKIRIDTVLHIDVGDKHHVTRTELHAKKVDGKWFSTELRIN
The protease stability score of the first is lower: 1.4 for the first, 2.23 for the second.

First: SDEDEISKHWVELLVEHIKTGDEDFLFKMFDPNVRVIIGDKIMHGRETLLDLIEKELKEAGITRFSMNLHHVDTQGDKAHSNMILDVNGVYRNVRVHFEKIDGKWHMHTWEER
Second: DEEEELVLRIMHELLKLVLTGDFKRLSELLDPNVRMEIVVGDKHIEEHGRERMSHWILEWLRHARVKEFRIHHLIAYDGQTDSNVRLNVRIGDKEHRFRVIVILQVIDGKIRSLTIIFE
The protease stability score of the first is higher: 1.99 for the first, 1.51 for the second.

First: SKISEFVKMLLEIEVHAHETGDWRHYQEMMDPHVKFELNIGNFHTLDHGRDRLIDWIEHHIKRADHLHVHIREVHVIGDKVSVRGELKTNVNGVDLEYEILQIIIVVDGRFKSIQHSYL
Second: DEDEHMVKHAIELILKSIITGDEDLWKRLFDPDVKIEVGDKDVHGRELATEFMKLWRDHMRFTHHEITRVETYNGRAHIHGRDRVTIDGQEMTRESHLVMIKVDGRWFLHSVHIK
The protease stability score of the first is lower: 0.155 for the first, 1.07 for the second.

Compared with “SEDEKMANEMLEIMMRNLITGNWEELSRLADPHVRIVINGVELHGRETINNYLHHLRIKRVHLNVTHIESIDGKVKSIGLLREHGEFNGKETETHTKVILIIQKVNGVWIVKEIRDE”, “SEEEEHAEELIRLELEALLTGDEEHMARNLDPNVRININGKDIVGREEVSRFLKHLRVRSIHIEIKDFRVIGNWLHVDGRVHFHGHFDGRKIDSTTQFHMILVKINGRWFIHSVKFQ” is higher in protease stability score: 1.4 for the first, 2.6 for the second.

Compared with “DESERDFRRALEIMHKVVETGNWEEAKRMFDPHVLLDVNGVLIHGREVIIKYVERIDHIRFHHDLKRIETQGDKIYADVHEDLDISINGKTIHIRTRVHIISQKYDGRWLNTEHKVE”, “DEQEEFSHRIMRLLIDLWHTGDWTLIEQYLDPNVRFEVGDKRHHGRESAVKALLELHRRLGVKHFDVKDKDQQGEKLVVVLEDRAENHHMEHELIVVKIDGRWTNHSIISRIH” is higher in protease stability score: 0.548 for the first, 1.01 for the second.

First: GEHEDYILHIVDLFIHNILTGDWDAILKLMDPDVRFEIEINGRTIEIHGWEQIKRIMDEIKERADHLHIEIRDKFSVNGVAFFEGTIEIRVGDKRHREDVEIILFVVDGRIKIIRKRDV
Second: TEESQIALEVLIKTARNKYTGDEDSVRHMADPNVQLHFDGQEIHGMDIIRKMIKHIRIDIEDSRSRDHHVQGDKIHDQTEVVLLIEYNGVHIRRQVRVHIHIWKINGRWILHSEIFE
The protease stability score of the first is higher: 1.99 for the first, 1.41 for the second.

Compared with “DEEEERLEKLAEILIHYHLTGDFEILLEYADPNVQTEFDGVEIHGMELSNKFLEKSNKKLGVDHRHYKSYSAYGNKVTVLSEIHVNGRKMEVRFRWDVVNGKIQTLHIHFD”, “DHEEHYSRIAVQEVLHRMLTGDEESLVKLADPHTRMTIGDKELHGWELVFEFLRDWVHKFKNIRLHIHQHEVQGDKIHIEIRVLIDGKEQDVKIHAEKIDGKWIYRQSHFR” is lower in protease stability score: 1.05 for the first, 0.751 for the second.

Going from “SEEEELEEFFIHLMIRMWDTGDFRTFKRLADPNVRLEVNGRHVVGREEVERLLRELLELLGADVIIHRDRDRDKFNGVIVVIIHGQIRQGDKFFDTHLHFVIEKVDGRWLLKSIHIEIR” to “EEDEEVAYHFMEEWFHYVHTGNEEMLERMLDPDVKLTFDGKEFHGRETVLRAIIEWRIEHVRIKDFRFKVINGRAEIRLDGERRGQIDGVKRETRIIIEINVHKVDGKWKIERVELHTL”, the protease stability score rises from 1.5 to 2.1.

First: DEDNREIKHAIHLLLTAFLTGNEDWLKELADPNVRILFNGRLFHGREHFLKFLLKFLRDYGIDHNHIQHSHLEIQGNFVHTHLHLEIDVNGRRQEFELRVISEKINGRWHLRELEVHIR
Second: SEEHETMNKLASDLIHDWLTGDWENTKELLDPHVKIDERVNGKNHQHHGREELVRILRERHEKIKGLRISIHHWEVINGRLHMDLRLHINGKTFSVEIHITIVDGRVKHIHVDIN
The protease stability score of the first is higher: 2.43 for the first, 1.22 for the second.

First: DDEEEEAKEMSEHTLQWFFTGDEEKLYKYIDPDVRVRVLIDGRELVYHGREVFLEFLKRQIEELGIDHVHLRRRHVIDGVLEVHGTINVDGREIELIIFADKYNGRWRLKLIEINVR
Second: TEDDELEKWATQLVKEVLETGDERLLENLADPNVRVEIGEKDSHGREEMLKDWKHMGIDHIHFEHSEFVGDFIDIHLVIHVNGKDLKQRIIILKIDGQWFLHSVHVE
The protease stability score of the first is lower: 1.69 for the first, 1.75 for the second.

Compared with “DEHEESVIWLLDVMFDAWRTGDEERVRRYLDPNVRIEVDGVSIHGRERVVEHLRRIDHLSVERVEIHHSTVINGVARTDGHVLLEFNIGDKHFRIERKSDSIVEKIDGRWIVHELTYR”, “DEERKELEEALRELKHSWETGDWRSLSEMADPNVLLKQGDFEYHGRELFLEFMRHLIEHLGIKHVEIRDMKIFENRVDMDVIIRFNGQTTRIQIILVKFNGRWFIKSVIIR” is higher in protease stability score: 0.202 for the first, 2.02 for the second.

Going from “TEDEKTAKHAKELLEHSIRTGDERLMERLLDPHALLIFDGRHIHGREDISRWYREIRIHHIHDENSEIQGDKLHLHMRIDGEYDGKRHELRVHWHSEKVNGRWSIRQVVLH” to “DEEEKLMKHRWEEWVRFLKTGDFDEIHDYMDPNVRLFIGDKTFHGRDVFARLVYRMGAKHVEFDLHDEHLINGKLIFHGRVVHTQGDKFIEFEVEIIAEKVNGKWLNRHQIFR”, the protease stability score falls from 1.44 to 0.456.
